Experimental findings from article PMC2233751 (The Journal of General Physiology, 2001) are described below.

In the test the target is actin filaments (UniProt P68135 1-377). Put plainly: co-sedimentation.

B1: myosin V 1IQ monomer (domain or fragment)
chain: MAASELYTKYARVWIPDPEEVWKSAELLKDYKPGDKVLQLRLEEGKDLEYCLDPKTKELPPLRNPDILVGENDLTALSYLHEPAVLHNLKVRFIDSKLIYTYCGIVLVAINPYEQLPIYGEDIINAYSGQNMGDMDPHIFAVAEEAYKQMARDERNQSIIVSGESGAGKTVSAKYAMRYFATVSGSASEANVEEKVLASNPIMESIGNAKTTRNDNSSRFGKYIEIGFDKRYRIIGANMRTYLLEKSRVVFQAEEERNYHIFYQLCASAALPEFKTLRLGNANYFHYTKQGGSPVIDGIDDAKEMVNTRQACTLLGISDSYQMGIFRILAGILHLGNVEFASRDSDSCAIPPKHDPLTIFCDLMGVDYEEMAHWLCHRKLATATETYIKPISKLHAINARDALAKHIYANLFNWIVDHVNKALHSTVKQHSFIGVLDIYGFETFEINSFEQFCINYANEKLQQQFNMHVFKLEQEEYMKEQIPWTLIDFYDNQPCINLIEAKMGVLDLLDEECKMPKGSDDTWAQKLYNTHLNKCALFEKPRLSNKAFIIKHFADKVEYQCEGFLEKNKDTVYEEQIKVLKSSKKFKLLPELFQDEEKAISPTSATPSGRVPLSRTPVKPAKARPGQTSKEHKKTVGHQFRNSLHLLMETLNATTPHYVRCIKPNDFKFPFTFDEKRAVQQLRACGVLETIRISAAGFPSRWTYQEFFSRYRVLMKQKDVLSDRKQTCKNVLEKLILDKDKYQFGKTKIFFRAGQVAYLEKIRADKLRAACIRIQKTIRGWLMRKKYMRMRR
For the molecule B1, the Kd – broadly, the equilibrium constant for the complex coming apart – was found to be 10 µM.
